Data published in patent US20030148264A1, “Phage displayed PDZ domain ligands” (GENENTECH, INC., priority 2001, published 2003).
Read-outs that look alike come from different tables or passages of the source. Where a SMILES comes first, the peptide text is derived from it. Where no end group is shown, it is not given here.

Experiments:
[1] = molecular target: T1, MAGI 3 PDZ2 (Homo sapiens, UniProt Q5TCQ9); test: Competition ELISA, peptide blocking PDZ domain binding to immobilized peptide; design: made in house; host or cells: E. coli
T1 sequence (Q5TCQ9 584-707 isoform Q5TCQ9-2): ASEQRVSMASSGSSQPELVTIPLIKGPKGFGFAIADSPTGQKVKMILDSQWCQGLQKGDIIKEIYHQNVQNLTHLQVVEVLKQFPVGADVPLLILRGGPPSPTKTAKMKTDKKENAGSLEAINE
Excerpt: (§1) Many methods are known and can be used to identify the binding affinities of PDZ domain binding ligands (e.g. peptides, proteins, small mollecules, etc.); for example, binding affinities can be determined as IC50 values using competition ELISAs. The IC50 value is defined as the concentration of ligand which blocks 50% of PDZ domain binding to a ligand. For example, in solid phase assays, assay plates may be prepared by coating microwell plates (preferably treated to efficiently absorb protein) with neutravidin, avidin or streptavidin. Non-specific binding sites are then blocked through addition of a solution of bovine serum albumin (BSA) or other proteins (for example, nonfat milk) and then washed, preferably with a buffer containing a detergent, such as Tween-20. A biotinylated known PDZ-domain ligand (for example, the phage peptides or cognate protein as fusions with GST or other such molecule to facilitate purification and detection) is prepared and bound to the plate. Serial delutions of the ligand to be tested with a PDZ domain polypeptide arc prepared and contacted with the bound ligand. The plate coated with the immobilized ligandis washed before adding each binding reaction to the wells and briefly incubated. After further washing, the binding reactions are detected, often with an antibody recognizing the non-PDZ fusion partner and a labeled (such as horseradish peroxidase (HRP), alkaline phosphatase (AP), or a fluorescent tag such as fluorescein) secondary antibody recognizing the primary antibody. The plates are then developed with the appropriate substrate (depending on the label) and the signal quantified, such as using a spectrophotometric plate reader. The absorption signal may be fit to a binding curve using a least squares fit. Thus the ability of the various ligands to inhibit PDZ domain from binding a known PDZ-domain ligand can be measured.
Prokaryotic: The ERBIN PDZ domain (aa. 1217-1371 of SEQ ID NO:201) or MAGI-3 PDZ 2 (aa. 584-707 of SEQ ID NO:200) were cloned into the EcoR 1/Not 1 or BamH 1/Not 1 sites of pGEX 6P-1 and pGEX 4T-3 E. coli expression vectors (Pharmacia) respectively. Expression and affinity purification of E coli expressed GST-proteins was performed as recommended by the manufacturer (Pharmacia).
(§2) Peptides corresponding to the selected sequences were synthesized and assayed for binding (Table 2). […] The data also confirmed that the minimal tetrapeptide selectants from the PDZ2 sort bind PDZ2 with high affinity. […] It appears that this large difference in binding affinity is attributable to the residue at P(−1), which is a Trp in the selected peptide as opposed to a Lys in PTEN/MMAC (compare HTQITWV with HTQITKV (SEQ ID NO:220), Table 2; The IC50 values are the concentrations of peptide that blocked 50% of PDZ domain binding to immobilized peptide in an ELISA).

[2] = molecular target: T2, MAGI 3 PDZ3 (Homo sapiens, UniProt Q5TCQ9); test: as above
T2 construct: PDZ2 and PDZ3 were purified as glutathione S-transferase (GST) fusions from E coli; GST; made in house; host or cells: E. coli
T2 sequence (Q5TCQ9 726-808 limits assumed): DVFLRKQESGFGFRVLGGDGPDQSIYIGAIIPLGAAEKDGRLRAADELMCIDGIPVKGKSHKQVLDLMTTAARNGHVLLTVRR
Excerpt: as §1, §2

[3] = molecular target: GST-MAGI-3 PDZ 2 (aa. 584-707 of SEQ ID NO:200) (human) [GST: P08515]; test: competition ELISA: peptide blocks GST-PDZ binding to immobilized peptide
Chain of GST-MAGI-3 PDZ 2 (aa. 584-707 of SEQ ID NO:200) (human) [GST: P08515] (P08515 whole entry): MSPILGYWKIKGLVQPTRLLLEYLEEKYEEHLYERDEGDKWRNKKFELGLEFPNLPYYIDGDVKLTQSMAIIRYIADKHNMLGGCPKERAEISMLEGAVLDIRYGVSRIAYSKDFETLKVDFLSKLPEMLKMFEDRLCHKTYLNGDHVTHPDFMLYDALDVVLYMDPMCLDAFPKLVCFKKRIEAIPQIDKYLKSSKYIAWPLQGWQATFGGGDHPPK

[4] = molecular target: GST-MAGI-3 PDZ 2 (aa. 584-707 of SEQ ID NO:200) (human) [GST: P08515]; test: alanine scan, competition ELISA
[5] = system: Magi1 PDZ3; test: IC50 (nM) | Magi1 PDZ3 | 0.625 nM | B01-87 | Bio-GGWFLDV (SEQ ID NO 686) | 15.62 nM
Procedure: (§3) Table printed on a drawing sheet, Fig. 12
Head of the field: IC50 (nM) | Magi1 PDZ3 | 0.625 nM | B01-87 | Bio-GGWFLDV (SEQ ID NO 686) | 15.62 nM
(§4) The patent's description of the figure: FIG. 12. IC50 values indicating binding affinities of various peptides to PDZ domains
(§5) First copying reader's note: The first column (three lines per block: protein, accession, PDZ domain) is treated as one cell spanning its block; an empty ruled row above the IC50/SD head is left out; #### cells are spreadsheet overflow marks as printed; several heads and cells are cut off at the left by the print (ample, eptide No, EQ ID NO).
Where the first naming reader finds the target: head: IC50 (nM) | Magi1 PDZ3 | 0.625 nM | B01-87

[6] = molecular target: T3, Erbin PDZ (Homo sapiens, UniProt Q96RT1); test: IC50 (nM) | Erbin PDZ | 2 nM | PDZ501 | Bio-Ac-GGWETWV (SEQ ID NO 687) | 37 nM
T3 construct: made in house; host or cells: E. coli
T3 sequence (Q96RT1 1258-1412): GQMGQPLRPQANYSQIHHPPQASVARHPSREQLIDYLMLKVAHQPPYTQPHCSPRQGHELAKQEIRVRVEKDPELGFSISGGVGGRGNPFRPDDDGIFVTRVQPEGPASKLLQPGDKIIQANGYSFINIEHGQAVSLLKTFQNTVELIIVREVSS
Procedure: as §3, §4, §5
Where the first naming reader finds the target: head: IC50 (nM) | Erbin PDZ | 2 nM | PDZ501

[7] = molecular target: T4, Human Scribble (KIAA0147, NP_056171.1) PDZ2 (aa 788-913) (Homo sapiens, UniProt Q14160); test: Carboxyl-terminal phage display binding selection; settings: number of phage-selected clones with this sequence, siblings counted as individuals
T4 construct: Human Scribble (KIAA0147, NP_056171.1) PDZ2 (aa 788-913); GST; made in house
T4 sequence (Q14160 788-913 isoform Q14160-2): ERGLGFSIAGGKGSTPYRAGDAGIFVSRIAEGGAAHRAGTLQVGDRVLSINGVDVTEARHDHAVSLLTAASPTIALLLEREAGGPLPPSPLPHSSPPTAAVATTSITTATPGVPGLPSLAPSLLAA
Excerpt: Phage display technology was further employed essentially as described above, with minor modifications, to select ligands of a variety of PDZ domains (including additional, independent rounds of selection for ERBIN PDZ and MAGI3 PDZ3). Briefly, peptide ligands were selected from pools of randomized peptides. […] The peptides were fused to the M13 phage major coat proteins such that the C-termini of the randomized peptides were free and available for binding. PDZ domains were utilized as their GST-fusions (referred to in this Example simply as “PDZ domains”). The particular amino acids comprising each PDZ domain target are indicated in the heading of Tables 11-29.
Peptide ligands were selected and identified for 17 (18 including ERBIN) PDZ domains. […] At the bottom of each table, the occurrence of each amino acid residue is expressed as a percentage of the total number of residues in the relevant position. Siblings (peptides with identical DNA that appear as more than one copy) were counted as individuals. The numbers for occurrence were corrected for codon usage. The relative codon usage is indicated after each amino acid in the header of the bottom section of each table. “n” refers to the number of sequences (siblings counted as individuals) on which the occurrence value is based; this number is also shown as normalized with respect to codon usage.

[8] = molecular target: T5, hZO1 PDZ1 (Homo sapiens, UniProt Q07157); test: IC50 (nM) | hZO1 PDZ1 | 5 nM | B01-88 | Bio-GGWRWTTWL (SEQ ID NO: 684) | 36 nM
T5 construct: Human ZO1 (NM_003257) PDZ1; GST; made in house
T5 sequence (Q07157 23-110): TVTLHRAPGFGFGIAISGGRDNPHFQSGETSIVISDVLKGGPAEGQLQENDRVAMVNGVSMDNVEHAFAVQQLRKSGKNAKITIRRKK
Procedure: Table printed on a drawing sheet, FIG. 12A
Head of the field: IC50 (nM) | hZO1 PDZ1 | 5 nM | B01-88 | Bio-GGWRWTTWL (SEQ ID NO: 684) | 36 nM
as §4
First copying reader's note: Upper left part of a table split over FIG. 12A-12D; further receptor columns and further peptides are on the other sheets.
(§6) Where the first naming reader finds the target: head: IC50 (nM) | hZO1 PDZ1 | 5 nM | B01-88

[9] = molecular target: T5, hZO1 PDZ1; test: IC50 (nM) | hZO1 PDZ1 | 5 nM | B01-88 | Bio-GGWRWTTWL (SEQ ID NO 684) | 36 nM
Procedure: as §3
Head of the field: IC50 (nM) | hZO1 PDZ1 | 5 nM | B01-88 | Bio-GGWRWTTWL (SEQ ID NO 684) | 36 nM
as §4, §5, §6

[10] = molecular target: T6, ERBIN PDZ-GST fusion protein (aa. 1217-1371 of SEQ ID NO:201) (human, UniProt P08515 1-218 = GST); test: competition ELISA: ERBIN PDZ-GST binding to immobilized biotin-WETWV
T6 sequence (P08515 whole entry, the tested form may be a part): as the sequence (P08515 whole entry) above

[11] = molecular target: T6, ERBIN PDZ-GST fusion protein (aa. …); test: as above; remark: listed apart in the source
[12] = molecular target: T6, ERBIN PDZ-GST fusion protein (aa. …); test: as above; remark: listed apart in the source
[13] = MAGI 3 PDZ2, concentration of peptide that blocked 50% of PDZ domain binding to immobilized peptide in an ELISA, read-out: IC50 (μM) PDZ2
[14] = MAGI 3 PDZ3, concentration of peptide that blocked 50% of PDZ domain binding to immobilized peptide in an ELISA, read-out: IC50 (μM) PDZ3

With `CC[C@H](C)[C@H](N)C(=O)N[C@H](C(=O)N[C@@H](CCCCN)C(=O)N[C@H](C(=O)O)C(C)C)[C@@H](C)O` [ITKV, reference compound] (H-ITKV-OH; N-terminus and C-terminus assumed) the IC50 ([1]; MAGI 3 PDZ2 domain, read-out: IC50) was 200 µM.

Work on ASKVTWV [ASKVTWV] yielded an IC50 [2] of over 1000 µM and an IC50 [1] of 0.8 µM.

Work on ASWV (peptide) yielded an IC50 [3] of 35 µM and a fold reduction in binding against CSWV [4] of 25 fold.

For “AWFDTDL [2 | 01-61, SEQ ID NO 641 AWFDTDL]”, the IC50 [5] was 18200 nM and the IC50 [6] was 25400 nM.

Work on “AWFETWV [phage-selected peptide, Scribble PDZ2]” yielded an occurence [7] of 2.

Work on “Ac-FETDL [1 | 01-104, SEQ ID NO 640 N^AC-FETDL]” yielded an IC50 [5] of 91500 nM and an IC50 [6] of 101000 nM.

For “Ac-FETWL [3 | 01-08, SEQ ID NO: 642: N^AC-FETWL]”, the IC50 [8] was 10400 nM.

In the case of “Ac-WFLDA [42 | 01-22, SEQ ID NO 681 NAC-WFLDA]”, the IC50 [9] is reported as 21800 nM and the IC50 [5] is reported as 410 ± 72 nM.

“Ac-WFLWI [34 | 01-12, SEQ ID NO 673 NAC-WFLWI]” gave an IC50 [5] of 34700 nM and an IC50 [6] of over 400000 nM.

For “Ac-WRWTTWL [9 | 01-103, SEQ ID NO: 648: N^AC-WRWTTWL]”, the IC50 [8] was 27 nM.

For “Ac-WRWTTWV [13 | 01-31, EQ ID NO 652 N^AC-WRWTTWV]”, the IC50 [5] was 32600 nM and the IC50 [6] was 789 ± 62 nM.

“Ac-WRWTTWV [13 | 01-31, SEQ ID NO: 652: N^AC-WRWTTWV]” showed an IC50 [8] of 0.0443 nM.

Molecule CAWV (peptide) has an IC50 [3] of 7.3 µM and a fold reduction in binding against CSWV [4] of 5 fold.

CSAV (peptide) gave an IC50 [3] of 200 µM and a fold reduction in binding against CSWV [4] of over 100 fold.

Molecule CSWA (peptide) has an IC50 [3] of 400 µM and a fold reduction in binding against CSWV [4] of over 100 fold.

For DGICSWV [DGICSWV], the IC50 [2] was over 1000 µM and the IC50 [1] was 0.3 µM.

Work on “EQ ID NO 648 N^AC-WRWTTWL (Ac-WRWTTWL) [9 | 01-103]” yielded an IC50 [5] of 180 ± 59 nM.

Work on “EQ ID NO 649 N^AC-YRWTTWL (Ac-YRWTTWL) [10 | 01-28]” yielded an IC50 [5] of 32600 nM.

For “ESVRGFDTWV [phage-selected peptide, Scribble PDZ2]”, the occurence [7] was 1.

With GCGCSWV the IC50 [1, 13] was 2 µM.

For “HRVRETWV [phage-selected peptide, Scribble PDZ2]”, the occurence [7] was 21.

Work on HTQITKV [HTQITKV, reference compound] yielded an IC50 [2, 14] of over 1000 µM and an IC50 [1, 13] of 200 µM.

HTQITWV [HTQITWV] gave an IC50 [1, 13] of 0.3 µM.

Work on “LTVRETWV [phage-selected peptide, Scribble PDZ2]” yielded an occurence [7] of 4.

In the case of “RKSRTFETWV [phage-selected peptide, Scribble PDZ2]”, the occurence [7] is reported as 1.

“RSRYRFTDV [phage-selected peptide, Scribble PDZ2]” gave an occurence [7] of 6.

Molecule SEQ ID NO 671 NAC-WFLDI [32 | 01-14] has an IC50 [5] of 408 ± 50 nM.

“STGKFFDTWV [phage-selected peptide, Scribble PDZ2]” was tested, and the occurence [7] was 1.

In the case of TRWWFDI-NH2 [TRWWFDI-NH2], the IC50 [2, 14] is reported as 300 µM.

Molecule TRWWFDI-OH [TRWWFDI] has an IC50 [2, 14] of 0.9 µM and an IC50 [1, 13] of over 1000 µM.

For Ac-WETYV [Ac-WETYV], the IC50 [10] was 42.5 µM and the “fold less potent than Ac-WETWV” value [10] was 86.7 fold.

In the case of Ac-WETFV [Ac-WETFV], the IC50 [10] is reported as 14.5 µM and the “fold less potent than Ac-WETWV” value [10] is reported as 295 fold.

In the case of Ac-WEVWV [Ac-WEVWV], the IC50 [11] is reported as 4.8 µM and the “fold less potent than Ac-WETWV” value [11] is reported as 9.8 fold.

Ac-WETAV [Ac-WETAV] was tested, and the IC50 [12] was 34 µM, the “fold less potent than Ac-WETWV” value [12] was 69.3 fold and the IC50 [10] was 34 µM. The “fold less potent than Ac-WETWV” value [10] was 69.3 fold.

With Ac-WDTWV [Ac-WDTWV] the IC50 [11] was 1.7 µM and the “fold less potent than Ac-WETWV” value [11] was 3.4 fold.

Ac-WESWV [Ac-WESWV] was tested, and the IC50 [11] was 2.5 µM and the “fold less potent than Ac-WETWV” value [11] was 5.2 fold.
